Data published in the nanobody polyreactivity screen of Harvey et al. (2022).

Experiment: yeast display, Sf9 membrane polyspecificity reagent, FACS + sequencing; frameworks hold sequencing errors
Method in brief: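 After 36–48 hours of galactose induction, yeast (Saccharomyces cerevisiae BJ5465) displaying a synthetic nanobody library were stained at 4 °C for 1 hour with 10% biotinylated, detergent-solubilized Sf9 membrane reagent. Streptavidin microbeads enriched the stained cells before FACS sorting into low and high (top ~1%) gates on anti-HA and streptavidin fluorescence. Each clone's polyreactivity label reflects its gate of origin.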

Row | Sequence | polyreactivity (PSR sort gate)
1 | QVQLVESGGGLVQAGGSLRLSCAASGRTFTGYAMGWYRQAPGKEREFVAAITQRGGSTYYADSVKGRFTISRDNAKNTVYLQMNSLKPEDTAVYYCAASYLTWKRRYDYWGQGTQVTVSS | high polyreactivity
2 | QVQLVESGGGLVQAGGSLRLSCAASGRTLFHYAMGWYRQAPGKERELVAAIRNSDGSTYYADSVKGRFTISRDNAKNSVYLQMNSLKPEDTGDYNCAAKYKYGTYNYWGQGSQVTVSS | high polyreactivity
3 | QVQLVESGGGLVQAGGSLRLSCAASGSIFSRYAMGWYRQAPGKERELVAAISRRGGTTYYADSVKGRFTISRDNAKNTVYLQMNSQKPVDTAVYYCAAVFVTQSFIYDYYYWGQGTQVTVSS | high polyreactivity
4 | QVQLVESGGGLVQAGGSLRLSCAASGFIFRYYAMGWYRQAPGKERELVAGISSSGASTYYADSVKGRFTISRDNAKYTVYLLMNSLKPEDTAVYYCAARRQRDRYGYWGQGTQVTVSS | high polyreactivity
5 | QVQLVETGGGLVQAGGSLRLSCADYGYILWNAMGWYRQAPGTEMELVPAIRFRGGSTSYADSVKGRFTISRDNAQNTVYLQMKSLKPVYTAVYYCNARWWVIRPYERHDYWGQGTQVTVTS | low polyreactivity
6 | QVQLVESGGGLVQAGGSLRLSCAASGLTFYVYAMGWYRQAPGKERELVAAISSGGRTYYADSVKGRFTISRDNAKNTVYLQMNSLKPEDTAVYFCAAVRHRNYGYWGQGTQVTVSS | high polyreactivity
7 | QVQLVDSGGGLVQAGGSLRLSCPASGRTFYVYDMGWYRQSPGKERELVAVISSSGSTNYADSVKGRFTISRDNAKNTVYLQMNSLKPEDTAVYYCNRRRWYFFSLDFWGEGTQVTVSS | high polyreactivity
8 | QVQLVESGGGLVQAGGSLRLSCAASGSNFTVYAMGWYRQAPGKDGELVAAISYNGGCTYYADSVKGRFTISRDNAKNTVYLQMNSLKPEDTAVYYCAARYRDRGRRAEYEYWGQGTQVTVSS | high polyreactivity
9 | QDQHVESGGGLVQAGGSLRLSCAASGFTFPLKAMGWSRQAPGKERELVAVINYSDGSTYYADSVKGRFSISRDNAKNTVYLQMNSLTPEDTAVYYCAARYYTTYYWGQGTQVTVSS | high polyreactivity
10 | QVQLVESAGGLVQAGGSLRLSCAASGFTFREYAMGWYRQAPGKERELVADIDWSGGSTYYADSVKGRFTISRDNAKNTFYLQMNSLKPEDTAVYYCAKAYYPGVYWGQGTQVTVSS | high polyreactivity
11 | QVQLVESGGGLVQAGGSLRLSCAASGSTFYTNAMGWSRQAPGKERELVASIDRGGGSTYYAESVKGRFTISRDNAKNTVYLQMNSLKPEDTAVYYCAASFDGRYWGYYYWGQGTKVTVSS | low polyreactivity
12 | QVQLEESGGGLVQAGGSLRLSCAASGSTFEGYAMGWYRQAPGKERELVAVISSGSITKYADSVKGRFTISRDNAKNTVFLQINSLKPEDTAVYYCARKGGIIFASYLLGGYWGQGTQVTVSS | low polyreactivity
13 | QVQLVESGGGLVQAGGSLSLSCAASGSTFRGYAMGWDRQAPGKERELVADSTYYADSVKGRFTISRDNAKNTVYFQMNCLKPEDTAVYYCNADIAGWGSQDGTDDYWGLGTQVTVSS | high polyreactivity
14 | QVQPQESGGGLVQAGGSLRLSCAASGTIFAFQTMGWYRQAPGKERELVASITYGSSTNYADSVKGRFTISRDNAKNTVYLQMNSLKPEDTAVYYCAKSAQRYSYRYYYWGQGTQVTVSS | high polyreactivity
15 | QVQLVESGGGLVQAGGSLRLSCAASGRIFQYDVMGWYRQAPGKERELVARITYNGGGTYYADSVKGRFTISRDTAKNTVYLQMNSLKPEDTAVYYCNARYPWRDWEDDYWGQGTQVTVSS | low polyreactivity
16 | QVQLLESGGGLVQAGGSLRLICAASGSTFVVYAMGWYRQAPGKERELVAAIRSGGGTYYADSVKGRFTISRDNAKNTVYLQMNSQKPEDTAVYYCNADSDPGPAYVYRDLYDYWGQGTQVTLSS | low polyreactivity
17 | QVQLVESGGGLVQAGGSLRLSCAASGSTFPYPYTMGWYRQAPGKERELVAVNSRTGGSTFYADSVKGRFTISRDNAKNTVYFQMNSLKPEDTAVYYCAARRDGWTFWKYDYWGQGTQVTVSS | high polyreactivity
18 | QVQLVESGGGLVQAGGSLRLSCAASGRIFKFNAMGWYRQAPGKEMELVAATWSGGRTYYSDSVKGRFTISRDNAKYTVYLQMNCLKPEDTAVYYCNAADSSWYVLYGSYYRSGLDYWGQGTQVTVSS | low polyreactivity
19 | QVQLQESGGGLVQAGGSLRLSCAASGYIYSWYPMGWYLQAPGKEREFVATIAPGATTYYADSVKGRFTISRDYAKNTVYLQMNSLKTEDTAVYYCAAGAENNDFYSYWGHGTQVTVSS | low polyreactivity
20 | QVQLVESGGGLVQAGGSLRLSCAASGRIFQAYAMGWYRQAPGKERELVASISYRGGITYYADSVKGRFTISRDNAKNTVYLQMNSLKPEDTEVYYCAAGRKGSMYYWGQGTQVTVSW | high polyreactivity
21 | QVQLVESWGGLVKAGGSLRLSCAASGRTIRGYTMGWNRQAPGKQRELVAAISQSGGRTHYADSVKGRFTISRDNAKNTVYLEMKSLKPEDTAVYYCAARGQRERSYPLYDYWGQGTQVTVSS | high polyreactivity
22 | QVQLVESGGGLVQAGGSLRLSCAASGRTFWANAMGWYRPAPGKERELVAAITIGGRTYYADSVKGRFTISRDNAKNTVYLQMNSLKPEDTAVYYCNAGTRRPFPAESGYWGQVTQVTVSS | low polyreactivity

Row | Sequence | polyreactivity (PSR sort gate)
23 | QVQLVESGGGLVQAGGSLRLSCAASGSIFSHYAMGWYRQAPGKERELVARITWGGGSTYADCVKGRFTISRDNAKNTVYLQMKSLKPEDTAVYYCAAVPVGYDSDWGYYYWGQGTQVTVSS | low polyreactivity
24 | QVQLVESGGGLVQEGGTLRLSCAASGSISIRNAMGWYRQAPGKERELVAAITYSGGSTYYADSVKGRFTISRDTAKNTVYLQMNSLKPEDTAVYYCAKDHYRFRYDYWGQGTQVTVSS | low polyreactivity
25 | QVQLVESGGGLVQAGASLRLSCAASGRIFPTYAMGWYRQAPGKEMEFVAAISRSGGRTYYADSVKGRFTISRDHAKNTVYLQMNSLKPEDTAVYYCNAEGDPYVDFPSRSTGYDYWGQGTQVTVSS | high polyreactivity
26 | QVQLVESGGVLDQGGGSLRLSCASSGITYRRYAMGWYRQAPGKERELVAANTYGGGSTYYADSVKGRFTISRDNAKNTVYLQMNSLKPADTAVFYCYARYSGGFGGGSKPDYYWGQGTQVTVAS | high polyreactivity
27 | QVQLVESGGGLVQAGGSLRLSCAASGRIYRYAMGWYRQAPGKERELVAAISGGGGRTYYADSVKGRFTISRDNAKNTFYLQLNSLKPEVTAVYDCAVDPYFYYYGDYYFDYWGQGTQVTVSS | high polyreactivity
28 | QVQLVESGGGLVQAGGSLRLSCADSGRIFGPYAMGWYRKAPGKERELVAAIRASSSTYYADSVKGRFTISRDNAKNTVYLQMNSLKPEDTAVYYCAADWYYGYAWKYGYWGQGTQVTVSS | low polyreactivity
29 | QVQLVESGGGLVQAGGSLRLSCAASGIIFRGNAMGWYRQAPGKERELVAAISSGGSTYYADSVKGRFTISRDNAKNRVYLQMNSLKPEDTAVYYCNARWYYWGTLYGSWGHGTQVTVSS | high polyreactivity
30 | QVQLVESGGGLVQAGGSLRLSCAASGYTFKTYAMGWYRQAPVKERELVAAISGSGGSTYYADSVKGRFTISRDNAKNTVYLQMNSLKPEDTAVYYCNASPTTTPNFWRYDYWGQGTQVTVSS | high polyreactivity
31 | QVQLVESGGGLVQAGGSLRLSCAASGFTFVYYTMGWYRPAPWKERELVAAITWRGSTYYADSVKGRFTISRDNAKNTVYLQMNSLKPEDTAVYYCAARYRVLLRHREYDYWGQGTQVTVSS | high polyreactivity
32 | QVQLVESGGGLVQAGGSLRLSCAASGMGWYRQAPGKERELVATITTGGTYADSVKGRFTISRDNAKNTVYLQMNSLKPEDTAVYYCAADGLGSVYYLRYNYWGQGTQVTVSS | low polyreactivity
33 | QVQLVESGGGLVQAGGSLRLSCAASGSTFRSYAMGWYIQAPGKERELVARISYRTGSTYYADSVKGRFTISRDNAKNTVYLQMNSLKPEDTAVYYCATRGSYVGGLYDYWGQGTQVTVSS | high polyreactivity
34 | QVQLVESGGGLVQAGGSLRLSCAASGFTFTRNAMGWYRQAPGKERFVAAITGSGASTYYADSVKGRFTISRDNAKNTVYLQMNSLKPEDTAVYYCNAEYYAGRYRYDYWGQGTQVTVSS | high polyreactivity
35 | QVQLEESGRGLVQAGGSLRISCAASGRTYTYYALGWYRQAPGKERELVAAISQSGGSTYYADSVKGRFTISRDNAKNTVYLQMNSLKPEDTAVYYCASVWRTRWAPGYYWGQGTQVTVSS | high polyreactivity
36 | QVQLVESGGGLVQAGGSLRLSCAASGSIFPRNAMGWSRQAPGKEMELVATITSGTSTNYADSVKGRFTISRDNAKNTVYLQMNSLKPEDTAVYYCAADHYYTGTTYNYWGQGTQVTVSS | low polyreactivity
37 | QVQLVESGGGLVQAGGSLRLSCAASGLIFYVYAMGWYRQAPGKERELVADISTAGGITNYADSVKGRFTISRDNAKNTVYLQMNSLKPEDTAVYYCAATQPWYNTRTRYGSWGQGTQVTVSS | low polyreactivity
38 | QVQLVESGGGLVQAGGSLRLSCAASGSTFFQYAMGWYRQAPGKERELVAAITTSGGRTYYADSVKGRFTISRDNAKNTVYLQMNSLKPEDTAVYYCAGYNYWGQGTQVTVSS | high polyreactivity
39 | QVQLVESGVGLVQAGGSLRLSCAASGRIFTFNVMGWYRQAPGKERELVAAITFSGGSTYYADSVKGRFTISRDNAKNTVYLQMNRLKTEDTAVYFCAAKISLGDDYWGQGTQVTVSS | low polyreactivity
40 | QVQLVESGGGLVQAGGSLRLSCAPSGFTFYTYAMGWYRQAPGKERELVAVISRSGGRTNYADSVKGRFTISRDNAKNTVYLQMNSLKPEDTAVYYCNRYDRQRSWSVGYDYWGQGTQVTVSS | high polyreactivity
41 | QVQLVESGGGLVQAGGSLRLSCAASGSIFYVYAMGWYRQAPGKERELVAAITARVTSTYYADSVKGRFTISRDNAKNTVYLQMNRLKPEDTADYYCAARTSYKTGYRKYDYWGQGTQVTVSS | low polyreactivity
42 | QVQLVESGGGLVQAGGSLRLSCAASVRIFSINAMGWYRQAPGKERELVAAINSGGSTHYADSVKGRFTISRDNAKNTVYLQMNSLKPEDTAGYYCAARKTVSYFRVRTFDYWGQGTQVTVSS | low polyreactivity
43 | QVQLVESGGGLVQAGGSLRLICAASGVSNAKGWYRQAPGKERELVAAISRSGGSTYYADSVKGRFTISRDNAKNTVYIQMNSLKPEDTAVYYCAAGYRTRGLYSRLDWGQGTQVTVSS | high polyreactivity
